According to publication PMC10397247:
One block for each binder: values may come before it.

Assays:
Assay in all cases: two-hybrid library CCNG1;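 also: natural log of median RNA to DNA barcode read ratio; higher means stronger binding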
4H3057-bH = molecular target: T1, 4H3057-bH
T1 chain: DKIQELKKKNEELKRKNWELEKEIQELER

4H2915-bH = molecular target: T2, 4H2915-bH
T2 chain: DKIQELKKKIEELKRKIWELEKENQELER

4H2839-bH = molecular target: T3, 4H2839-bH
T3 chain: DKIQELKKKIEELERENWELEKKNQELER

4H2692-bH = molecular target: T4, 4H2692-bH
T4 chain: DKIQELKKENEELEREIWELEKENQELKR

4H477-bH = molecular target: T5, 4H477-bH
T5 chain: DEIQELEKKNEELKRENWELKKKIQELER

4H319-bH = molecular target: T6, 4H319-bH
T6 chain: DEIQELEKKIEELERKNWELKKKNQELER

4H40-bH = molecular target: T7, 4H40-bH
T7 chain: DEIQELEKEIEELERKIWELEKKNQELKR

4H741-bH = molecular target: T8, 4H741-bH
T8 chain: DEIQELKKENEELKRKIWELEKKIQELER

4H3277-bH = molecular target: T9, 4H3277-bH
T9 chain: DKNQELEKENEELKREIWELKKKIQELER

4H492-bH = molecular target: T10, 4H492-bH
T10 chain: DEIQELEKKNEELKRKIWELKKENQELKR

4H348-bH = molecular target: T11, 4H348-bH
T11 chain: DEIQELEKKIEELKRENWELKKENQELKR

4H2717-bH = molecular target: T12, 4H2717-bH
T12 chain: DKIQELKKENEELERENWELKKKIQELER

4H780-bN = molecular target: T13, 4H780-bN
T13 chain: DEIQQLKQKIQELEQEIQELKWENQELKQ

4H3817-bH = molecular target: T14, 4H3817-bH
T14 chain: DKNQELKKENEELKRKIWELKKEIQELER

4H968-bN = molecular target: T15, 4H968-bN
T15 chain: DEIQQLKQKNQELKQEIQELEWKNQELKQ

4H3129-bH = molecular target: T16, 4H3129-bH
T16 chain: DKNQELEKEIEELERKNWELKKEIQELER

4H908-bN = molecular target: T17, 4H908-bN
T17 chain: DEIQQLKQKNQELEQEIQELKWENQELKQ

4H3185-bN = molecular target: T18, 4H3185-bN
T18 chain: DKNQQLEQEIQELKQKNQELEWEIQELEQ

4H607-bN = molecular target: T19, 4H607-bN
T19 chain: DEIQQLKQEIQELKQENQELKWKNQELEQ

4H967-bN = molecular target: T20, 4H967-bN
T20 chain: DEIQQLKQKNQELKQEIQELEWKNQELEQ

4H3926-bN = molecular target: T21, 4H3926-bN
T21 chain: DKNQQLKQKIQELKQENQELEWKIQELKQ

4H3172-bN = molecular target: T22, 4H3172-bN
T22 chain: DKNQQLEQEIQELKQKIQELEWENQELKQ

4H4073-bN = molecular target: T23, 4H4073-bN
T23 chain: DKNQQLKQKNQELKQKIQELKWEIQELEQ

4H855-bN = molecular target: T24, 4H855-bN
T24 chain: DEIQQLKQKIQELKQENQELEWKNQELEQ

4H3782-bN = molecular target: T25, 4H3782-bN
T25 chain: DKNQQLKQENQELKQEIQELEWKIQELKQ

4H918-bN = molecular target: T26, 4H918-bN
T26 chain: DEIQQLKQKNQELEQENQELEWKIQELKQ

4H568-bN = molecular target: T27, 4H568-bN
T27 chain: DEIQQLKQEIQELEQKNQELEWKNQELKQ

4H3112-bN = molecular target: T28, 4H3112-bN
T28 chain: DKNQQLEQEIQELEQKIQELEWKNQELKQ

4H754-bN = molecular target: T29, 4H754-bN
T29 chain: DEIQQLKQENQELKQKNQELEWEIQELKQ

4H953-bN = molecular target: T30, 4H953-bN
T30 chain: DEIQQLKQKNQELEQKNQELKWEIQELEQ

4H346-bN = molecular target: T31, 4H346-bN
T31 chain: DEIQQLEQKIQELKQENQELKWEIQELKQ

4H4001-bN = molecular target: T32, 4H4001-bN
T32 chain: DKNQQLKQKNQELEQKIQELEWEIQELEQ

4H883-bN = molecular target: T33, 4H883-bN
T33 chain: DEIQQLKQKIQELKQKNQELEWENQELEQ

4H683-bN = molecular target: T34, 4H683-bN
T34 chain: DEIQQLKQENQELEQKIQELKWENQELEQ

4H457-bN = molecular target: T35, 4H457-bN
T35 chain: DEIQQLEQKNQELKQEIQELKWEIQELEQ

4H3354-bN = molecular target: T36, 4H3354-bN
T36 chain: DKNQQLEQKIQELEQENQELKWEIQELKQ

4H331-bN = molecular target: T37, 4H331-bN
T37 chain: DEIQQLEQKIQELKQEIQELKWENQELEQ

4H687-bN = molecular target: T38, 4H687-bN
T38 chain: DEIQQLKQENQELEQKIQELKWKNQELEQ

4H3427-bN = molecular target: T39, 4H3427-bN
T39 chain: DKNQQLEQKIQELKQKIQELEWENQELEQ

4H454-bN = molecular target: T40, 4H454-bN
T40 chain: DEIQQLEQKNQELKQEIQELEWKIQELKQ

4H797-bN = molecular target: T41, 4H797-bN
T41 chain: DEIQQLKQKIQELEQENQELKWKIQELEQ

4H717-bN = molecular target: T42, 4H717-bN
T42 chain: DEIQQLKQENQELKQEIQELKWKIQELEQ

4H575-bN = molecular target: T43, 4H575-bN
T43 chain: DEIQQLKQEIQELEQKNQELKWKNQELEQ

4H3855-bN = molecular target: T44, 4H3855-bN
T44 chain: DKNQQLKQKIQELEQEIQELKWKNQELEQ

4H338-bN = molecular target: T45, 4H338-bN
T45 chain: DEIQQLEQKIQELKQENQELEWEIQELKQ

4H72-bN = molecular target: T46, 4H72-bN
T46 chain: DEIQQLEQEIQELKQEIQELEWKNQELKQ

interaction score (4H3057-bH): -0.0522
interaction score (4H2915-bH): 0.971
interaction score (4H2839-bH): -0.447
interaction score (4H2692-bH): 0.733
interaction score (4H477-bH): -0.436
interaction score (4H319-bH): -1.1
interaction score (4H40-bH): 0.218
interaction score (4H741-bH): -1.04
interaction score (4H3277-bH): -0.368
interaction score (4H492-bH): 1.54
interaction score (4H348-bH): -0.787
interaction score (4H2717-bH): -0.125
Binder: DKIQELKKENEELEREIWELEKENQELKR [4H2692-bH]

interaction score (4H780-bN): -0.0911
interaction score (4H3817-bH): -0.521
interaction score (4H968-bN): -0.158
interaction score (4H3129-bH): -0.762
interaction score (4H908-bN): 0.308
interaction score (4H3185-bN): -1.11
interaction score (4H607-bN): 0.634
interaction score (4H967-bN): -1.11
interaction score (4H3926-bN): 0.154
interaction score (4H3172-bN): 0.00481
interaction score (4H4073-bN): -0.28
interaction score (4H855-bN): 0.606
interaction score (4H3782-bN): -0.541
interaction score (4H918-bN): 0.0994
interaction score (4H568-bN): 0.078
interaction score (4H3112-bN): -0.426
interaction score (4H754-bN): -1.34
interaction score (4H953-bN): 0.0741
interaction score (4H346-bN): 0.282
interaction score (4H4001-bN): -0.255
interaction score (4H883-bN): 1.54
interaction score (4H683-bN): 0.347
interaction score (4H457-bN): -0.526
interaction score (4H3354-bN): 0.377
interaction score (4H331-bN): -0.918
interaction score (4H687-bN): -1.66
interaction score (4H3427-bN): 0.996
interaction score (4H454-bN): 0.745
interaction score (4H797-bN): -0.676
interaction score (4H717-bN): -1.88
interaction score (4H575-bN): -1.34
interaction score (4H3855-bN): -0.962
interaction score (4H338-bN): -0.816
interaction score (4H72-bN): -0.5
Binder: DKNQQLEQEIQELEQKIQELEWKNQELKQ [4H3112-bN]
